Assay results from patent publication US20210079110A1 (SCHOOL JURIDICAL PERSON THE KITASATO INSTITUTE, published 2021).

Legend:
[1] = target: T1, SEQ ID NO 69; assay: peptide array of 15-mers, antibody diluted to 1/100 and 1/500
T1 construct: 15-residue KK-LC-1 peptide of the peptide array
T1 peptide: KLVELEHTLLSKGFR
Text: (§1) An antigen of the monoclonal antibody produced by the hybridoma cell line (accession number: NITE BP-02527) was identified by epitope mapping. Specifically, first, 73 types of 15-amino acid residue peptides in which a position on an N-terminus side was shifted by one amino acid residue each were synthesized based on the amino acid sequence of the KK-LC-1 protein to produce a peptide array. Amino acid sequences of the 73 types of peptides are shown in SEQ ID NOs: 13 to 85, respectively.
(§2) Subsequently, the peptide array was reacted with a monoclonal antibody to identify peptides having reactivity. The monoclonal antibody was diluted to 1/100 and 1/500 and the resultants were each reacted.

[2] = target: T2, SEQ ID NO 70; assay: as above
T2 construct: 15-residue KK-LC-1 peptide of the peptide array
T2 peptide: LVELEHTLLSKGFRG
Text: as §1, §2

[3] = target: T3, VELEHTLLSKGFRGA (SEQ ID NO: 71); assay: as above
T3 construct: 15-residue KK-LC-1 peptide of the peptide array
T3 peptide: VELEHTLLSKGFRGA
Text: as §1, §2

[4] = target: T4, LSMVENKLVELEHTL (SEQ ID NO: 63); assay: as above
T4 construct: 15-residue KK-LC-1 peptide of the peptide array
T4 peptide: LSMVENKLVELEHTL
Text: as §1, §2

[5] = target: T5, SEQ ID NO 64; assay: as above
T5 construct: 15-residue KK-LC-1 peptide of the peptide array
T5 peptide: SMVENKLVELEHTLL
Text: as §1, §2

[6] = target: T6, SEQ ID NO 65; assay: as above
T6 construct: 15-residue KK-LC-1 peptide of the peptide array
T6 peptide: MVENKLVELEHTLLS
Text: as §1, §2

[7] = target: T7, SEQ ID NO 66; assay: as above
T7 construct: 15-residue KK-LC-1 peptide of the peptide array
T7 peptide: VENKLVELEHTLLSK
Text: as §1, §2

[8] = target: T8, SEQ ID NO 67; assay: as above
T8 construct: 15-residue KK-LC-1 peptide of the peptide array
T8 peptide: ENKLVELEHTLLSKG
Text: as §1, §2

[9] = target: T9, SEQ ID NO 68; assay: as above
T9 construct: 15-residue KK-LC-1 peptide of the peptide array
T9 peptide: NKLVELEHTLLSKGF
Text: as §1, §2

[10] = target: T10, Kitakyushu lung cancer antigen-1 (KK-LC-1) protein (human (tissue slices of patients), UniProt Q5H943 1-113); assay: immunohistochemical staining of formaldehyde-fixed tissue slices
T10 construct: Endogenous protein in formaldehyde-fixed tissue slices (testis, seminoma, gastric tissue) stained by immunohistochemistry; also called NP_001017978.1
T10 sequence: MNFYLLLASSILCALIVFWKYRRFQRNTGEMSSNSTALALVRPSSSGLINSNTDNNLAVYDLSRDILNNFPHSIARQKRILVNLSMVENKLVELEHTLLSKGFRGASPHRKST
Text: Tissue slices of a normal region and a tumor region of a patient suffering from a testicular tumor and tissue slices of a normal region and a tumor region in a gastric tissue of a patient suffering from a gastric cancer, which are fixed with formaldehyde, were stained by using the produced monoclonal antibodies.

[11] = target: T11, peptide having the amino acid sequence set forth in SEQ ID NO: 1; assay: ELISA on immobilized peptide (Experimental Example 2) and absorption operation (Experimental Example 4)
T11 construct: Immunogen; immobilized on a 96-well plate in the ELISA and used for the absorption operation at 0.05 mg/mL; also called immunized peptide; peptide used for the immunization of the mouse
T11 peptide: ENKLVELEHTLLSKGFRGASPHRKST
Procedure: Reactivity of a monoclonal antibody was confirmed by an ELISA method using an immunized peptide as an antigen. Specifically, first, the peptide having the amino acid sequence set forth in SEQ ID NO: 1 was immobilized on a 96-well plate. Moreover, as a control, a 96-well plate in which only blocking was performed without immobilizing the peptide was used. A skim milk solution was used for the blocking.
Subsequently, the 96-well plate was blocked, a culture supernatant of each established hybridoma cell line was added thereto, and a reaction was performed. Moreover, for comparison, wells reacted with a normal mouse serum were also prepared. Next, the unreacted monoclonal antibody was washed off, the resultant was reacted with an anti-mouse secondary antibody, and a chromogenic substrate was added to develop color. Then, absorbance of each well was measured using a plate reader.
For the absorption operation of the monoclonal antibody, the peptide having the amino acid sequence set forth in SEQ ID NO: 1 was used at a final concentration of 0.05 mg/mL. Moreover, the absorption operation was performed overnight at 4° C. [0090] (a) to (d) of FIG. 3 are photographs showing results of immunohistochemical staining. In each case, a magnification was 200 times. […]

Measured: binding result

B1: monoclonal antibody produced by the hybridoma cell line having an accession number of NITE BP-02527 (antibody, V domains shown)
VH: EVQLQQSGPELVKPGASVKMSCKTSGYTSTEYTMHWVKQSHGQSLEWIGVIYPNNGDTSYNQKFRGKATLTVDKSSNTAYMELRSLTSEDSAVYYCARLGWQGFANWGQGTLVTVSA
VL: DIVMTQAAPSVPVTPGESVSISCRSSKSLLHSNGNTFLYWFLQRPGQSPQLLIYRMSNLASGVPDRFSGSGSGTAFTLRISRVEAEDVGVYYCMQHLEYPLTFGAGTKLELK
notes: Mouse hybridoma antibody, used as culture supernatant; also called 34B3; 277 34B3 20170123
binds: all assays above
